Test results reported in the supplement of paper PMC12042874.
± gives the uncertainty stated by the source.

test: amyloid nucleation score (Sup35N fusion, yeast selection) (log enrichment); library NNK3; higher = more nucleation; inactive = no reads after selection
Outline: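 Sup35N fusions to peptides of 20 random codons were expressed in psi-negative yeast, induced 24 hours with 100 μM copper sulfate, and grown 7 days at 30°C on medium lacking adenine and uracil. Input and output plasmid inserts were sequenced by Illumina. The nucleation score is the DiMSum log enrichment of output over input reads, centred on the mode score of non-aggregating sequences. Sequences with under 100 input reads were excluded.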

| Substance | amyloid nucleation score |
| --- | --- |
| FLHVRLRHSWVV | inactive |
| FLKLSLDIMFPYQIVYMPTT | inactive |
| FLLMCLMRCTRMETRCISAC | inactive |
| FLLVR | inactive |
| FLMAINFKVQSVPQNHR | 0.211 ± 0.48 |
| FLMSHVII | inactive |
| FLNKITNVSIYLIGTRETDV | 2.81 ± 0.064 |
| FLNLNNMGLSYMAVSLVEG | inactive |
| FLQNFWA | inactive |
| FLQSGN | inactive |
| FLRPV | inactive |
| FLSDSLNARS | inactive |
| FLSIRFV | inactive |
| FLSKTLYIVVSHGVGTSGTG | inactive |
| FLVDVYSCVCSILLWV | inactive |
| FLVFGYASVGAIETWDKTAE | inactive |
| FLYFTHARFHR | 1.79 ± 0.094 |
| FMAQPSLIGLFRSQS | inactive |
| FMDYTARVVHLTAQRFMGLW | 0.189 ± 0.43 |
| FMFNRGAAFNHFTGHTCITY | inactive |
| FMIAQGYHMLYLKHLCTSRN | inactive |
| FMMEACSSDKGEQSMGSWIE | -0.32 ± 0.78 |
| FMSFSRGCTWSLGWA | inactive |
| FMSFYVLLSSTMVTQFAMGP | inactive |

| Substance | amyloid nucleation score |
| --- | --- |
| FMSTDTLRKCLSACMFGPIP | 0.021 ± 0.31 |
| FMSYCMYSLEGNSWHCGP | 3.03 ± 0.061 |
| FMVCCICGKYGMMVSC | inactive |
| FMYLT | inactive |
| FMYNLVVSGSVHSKVDRYSC | 0.629 ± 0.16 |
| FNAPVNVLFR | -0.176 ± 0.6 |
| FNDKSMFDASKAMPFSLIAG | inactive |
| FNFCCLSKQGAFFMGTYCCP | 0.341 ± 0.6 |
| FNIEASYAPVRCCCKPLLAR | inactive |
| FNKDINRPYKCKAH | inactive |
| FNMWIWS | inactive |
| FNPERPKAVDFPILNR | inactive |
| FNVKVVSKSMFYFCSYMPIV | inactive |
| FNVLNVNS | inactive |
| FNVYFGAIVFKEDLPCSYSA | 1.23 ± 0.12 |
| FNYKARYSNPVRDAIYWLQI | inactive |
| FPFSYVYSR | inactive |
| FPGRQIYYILVLAQAFASGF | inactive |
| FQAYDSWNNWSSGFILKYSI | inactive |
| FQLSPTDRVYRDRSAYDVEG | inactive |
| FQMKCNFWKI | 1.24 ± 0.077 |
| FQNLAYMITAAPASGKKTSR | inactive |
| FQNPFTPFGLVVRYVPWLCW | inactive |
| FQRVGRFPSYSTCAGRVATG | inactive |

| Substance | amyloid nucleation score |
| --- | --- |
| FQTGPRYAWGLQTGLNKQVC | inactive |
| FRAWYDTAMSQSLFLCRKGA | inactive |
| FRCSG | inactive |
| FRDIRFAQSMMLSRKIIALL | inactive |
| FRFGSVELLEAGTIQ | 0.043 ± 0.63 |
| FRGKISKEPNCVVYFQQGRP | inactive |
| FRNSLQ | -0.725 ± 1.1 |
| FRSAYDYNFC | inactive |
| FRSRRARGKNGIEMRILRHQ | -0.109 ± 0.69 |
| FRSVTTVVNVEKVRVY | inactive |
| FRVHLFFGKWRVVVCTR | inactive |
| FRVTMMSACRLDSIGLDCSC | 1.25 ± 0.086 |
| FSAIWMSRQSYLRINGSPAF | 0.088 ± 0.29 |
| FSAKDFSNVYRSPSMF | inactive |
| FSCSDLWGRSTLDKGYSFFR | inactive |
| FSCVGGGSSNIWREVTDTCS | inactive |
| FSFFRGTRLGKSARIAERFE | inactive |
| FSGVLLNVYYGIHYTISIYR | inactive |
| FSITSADGCCSHLLRMYTNG | inactive |
| FSIVELTLSRLK | inactive |
| FSLGVWSNPDWVRCSHWFIF | 1.28 ± 0.14 |
| FSLSPIFWYAG | inactive |
| FSMLWILSDYLSYSCNLVFY | inactive |
| FSREYP | inactive |

| Substance | amyloid nucleation score |
| --- | --- |
| FSRKDTYFLMGIFKLNLRYL | inactive |
| FSRMPSIKCMNCMCKLFSRK | 1.06 ± 0.11 |
| FSRYDRDLKGSLSGRSYFSA | inactive |
| FSSFLISYRYLIVFRQMVSI | inactive |
| FSSMANNIL | inactive |
| FSSVGRDDYCNGLM | inactive |
| FSTMKLISMHCRVS | inactive |
| FTDLTVNPNYNFYMCSLNRL | 2.72 ± 0.054 |
| FTLLIYCYYLYYRCFCYVVR | inactive |
| FTLLVMS | inactive |
| FTLNVIF | 1.9 ± 0.069 |
| FTLWYVFRCVRCNKVCSGTG | 0.087 ± 0.26 |
| FTNLMLTTMCSLTLLTRGFP | inactive |
| FTVSFRYSLCCRDGDGESEC | 1.97 ± 0.087 |
| FTYAC | inactive |
| FTYCRASRSITMQYVCVICT | inactive |
| FTYTEMRLGIKFSTWRQ | 1.03 ± 0.14 |
| FVCRNLTFPMGHQSIMSMWD | -0.117 ± 0.75 |
| FVDLHCSYRCIYGCCHFRIR | inactive |
| FVESIAVLKLFNTVKWITFF | inactive |
| FVEVRVD | inactive |
| FVFIFWTLFGRSRVDVASNM | inactive |
| FVGSLLGKSKFLGLHCCKEV | -0.08 ± 0.66 |
| FVHDFTFEGKSMVVRLNCSA | inactive |

| Substance | amyloid nucleation score |
| --- | --- |
| FVIGRI | inactive |
| FVKCFNGAFWNEGPFCYLCG | 0.331 ± 0.32 |
| FVKLIYWLGAWVSTLCG | inactive |
| FVLSMECSSRSSPSHTRDCA | -0.083 ± 0.33 |
| FVMGGGNGGHVGYMCFCEEV | inactive |
| FVMLVSEYGKELYIIGRPGA | inactive |
| FVMSFAN | inactive |
| FVNLAGLFGSRGTNLLCLGE | inactive |
| FVNQFLQKFMNLDKYIKLSH | inactive |
| FVQRWCYGGKCNGCVGSSGG | inactive |
| FVSFGLGTMFDLRA | inactive |
| FVSLHTRLGDLHDVVCTLVF | inactive |
| FVSLSRNLNCTPRL | inactive |
| FVSSVASFVSHKLVMKLSAM | inactive |
| FVTVVGGLRWNVTFSERWSV | 0.081 ± 0.61 |
| FVVCSAM | inactive |
| FVYDMHKHQIALRQVSSCEG | inactive |
| FWFLLWKRKDTLWAFR | inactive |
| FWGSTWSLRVL | inactive |
| FWKLNFITIMCG | -0.34 ± 1 |
| FWLLIIVF | inactive |
| FWLYYNFQFLDDC | inactive |
| FWMIVYMNNSLI | inactive |
